This passage reports Kd, fraction bound and stoichiometry N (CaM/MYO19-1IQ) results from publication PMC3927398.

Assay [1] has as its target actin filaments (F-actin) from rabbit skeletal muscle, phalloidin-stabilized (rabbit) (UniProt P68135). Briefly: co-sedimentation.
Assay [2] concerns the target MYO19-1IQ (N-terminal FLAG-tagged human MYO19, motor domain and one IQ motif, amino acids 2-787) (human) (UniProt Q96H55). Kind of assay: co-purification.

As usually defined, the Kd is the constant that tells how readily two partners part at equilibrium. Higher therefore signals lower affinity. In assay [1], “MYO19-1IQ with bound calmodulin light chain (from UniProt Q96H55-1 2-787; P0DP23 1-149) (complex)” showed a Kd of 1200 nM and a fraction bound at 5 μM actin without ATP of 0.8.
“calmodulin (from UniProt P0DP23 1-149) (natural protein)”: the stoichiometry N (CaM/MYO19-1IQ) in assay [2] turned out to be 1.1.
